Experimental data taken from patent US20090098175A1 (AFFINERGY, published 2009).
Where no end group is shown, it is not given here. [ ]: non-standard residue; d: D form. The star is where a group is joined. Biotin = O=C1N[C@H]2[C@H](CS[C@H]2CCCCC(=O)*)N1

Assays:
TGF-β3 = molecular target: T1, TGF-β3 (UniProt P10600 301-412); test: plate assay: biotinylated peptide on streptavidin plate, growth factor titrated, antibody/AP detection
T1 sequence (looked up): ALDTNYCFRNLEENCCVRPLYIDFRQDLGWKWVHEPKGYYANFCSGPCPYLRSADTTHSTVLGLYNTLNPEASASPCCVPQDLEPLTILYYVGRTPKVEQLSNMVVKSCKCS
Description: (§1) Briefly, peptides comprising an amino acid sequence of each of SEQ ID NOs: 1-3 were biotinylated to facilitate immobilization on streptavidin-coated 96-well plates. The microtiter plates were coated with streptavidin by adding 50 μl of a 10 μg/ml streptavidin solution in 0.1 M NaHCO₃, and incubating the plates for at least 3 hours. The plate wells were blocked by adding 150 μl of a 1% BSA solution in 0.1 NaHCO₃, and the plates were stored at 4° C. until needed. Before use, the streptavidin plates were washed extensively in buffer-T. Peptides were then added at 20 pmol per well in 100 μl of high-salt buffer-T (containing 500 mM NaCl), and then incubated for 1 hour at room temperature with shaking. 150 μl of 0.5 mM biotin in H₂O was added to block the remaining streptavidin sites, and plates were incubated for an additional hour. Plates were then washed with TBS-T to remove the excess biotin and peptide. Serial dilutions of growth factor (including fibrous connective tissue-inducing growth factors GDF-7, GDF-5, BMP-2, and BMP-6,; and growth factors other than fibrous connective tissue-inducing growth factors, such as BMP-5, TGF-β, TGF-β3, or PDGF-BB) in high-salt buffer-T were added (100 μl) to each well, representing a range of concentrations between 0.01 nM and 100 nM. Plates were incubated for 1 hour at room temperature with shaking prior to washing several times with TBS-T. Growth factors were then detected using 100 μl of the appropriate dilutions of primary antibodies specific for the growth factor being detected. After washing with buffer-T, 100 μl of alkaline phosphatase-conjugated secondary antibody was added to each well and incubated at room temperature for 45 minutes. Excess secondary antibody was removed by repeated washes with buffer-T, and the amount of alkaline phosphatase remaining in the well was detected using a pNPP (para-nitrophenylphos-phate) colorimetric enzymatic assay. The amount of growth factor captured by the peptides was determined by measuring the absorbance at 405 nm of the colored product of the alkaline phosphatase reaction.

PDGF-BB = molecular target: T2, PDGF-BB (UniProt P01127 82-190); test: as above
T2 construct: also called platelet-derived growth factor
Description: as §1

TGF-β1 = TGF-β1 (UniProt P01137 279-390); test: as above
Description: as §1

GDF-7 [1] = molecular target: T3, GDF-7 (UniProt Q7Z4P5 322-450, limits assumed); test: plate assay: biotinylated peptide on streptavidin plate, growth factor titrated 0.01-100 nM, antibody/AP detection
T3 construct: also called BMP-12; growth and differentiation factor 7
T3 sequence (looked up): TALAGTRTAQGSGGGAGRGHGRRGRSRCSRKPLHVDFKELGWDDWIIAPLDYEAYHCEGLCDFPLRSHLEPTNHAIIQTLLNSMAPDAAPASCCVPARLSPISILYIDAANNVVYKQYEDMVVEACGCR
Description: as §1

GDF-5 = molecular target: T4, GDF-5 (UniProt P43026 382-501); test: as above
T4 construct: also called BMP-14
T4 sequence (looked up): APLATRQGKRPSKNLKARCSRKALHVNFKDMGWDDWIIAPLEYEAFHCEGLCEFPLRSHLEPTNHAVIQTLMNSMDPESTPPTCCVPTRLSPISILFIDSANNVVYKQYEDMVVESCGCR
Description: as §1

BMP-2 = molecular target: T5, BMP-2 (UniProt P12643 283-396); test: as above
T5 construct: also called bone morphogenetic protein 2
Description: as §1

BMP-6 = molecular target: T6, BMP-6 (UniProt P22004 382-513, limits assumed); test: as above
T6 construct: also called bone morphogenetic protein 6
T6 sequence (looked up): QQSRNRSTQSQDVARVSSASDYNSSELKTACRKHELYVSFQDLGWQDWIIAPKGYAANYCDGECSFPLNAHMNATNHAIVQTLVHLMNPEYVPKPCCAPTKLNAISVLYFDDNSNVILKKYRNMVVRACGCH
Description: as §1

BMP-5 = molecular target: T7, BMP-5 (UniProt P22003 317-454, limits assumed); test: as above
T7 construct: also called bone morphogenetic protein 5
T7 sequence (looked up): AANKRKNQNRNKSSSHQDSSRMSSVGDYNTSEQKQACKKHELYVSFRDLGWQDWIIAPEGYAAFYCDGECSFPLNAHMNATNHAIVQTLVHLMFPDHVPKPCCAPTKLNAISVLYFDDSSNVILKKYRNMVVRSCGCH
Description: as §1

GDF-7 [2] = molecular target: T8, GDF-7 (UniProt Q7Z4P5 322-450); test: GDF-7 capture on sutures
T8 chain: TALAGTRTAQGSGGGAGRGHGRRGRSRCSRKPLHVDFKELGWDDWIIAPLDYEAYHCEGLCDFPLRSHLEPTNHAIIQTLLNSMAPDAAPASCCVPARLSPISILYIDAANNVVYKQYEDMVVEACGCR

T2 sequence (P01127 82-190 limits assumed): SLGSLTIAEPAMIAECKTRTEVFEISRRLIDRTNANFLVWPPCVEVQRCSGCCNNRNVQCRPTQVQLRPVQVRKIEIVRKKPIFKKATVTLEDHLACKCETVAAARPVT
Sequence of TGF-β1 (P01137 279-390 limits assumed): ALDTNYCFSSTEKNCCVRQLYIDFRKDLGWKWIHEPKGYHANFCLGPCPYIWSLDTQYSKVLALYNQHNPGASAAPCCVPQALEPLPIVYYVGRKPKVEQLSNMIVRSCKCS
T5 sequence (P12643 283-396 limits assumed): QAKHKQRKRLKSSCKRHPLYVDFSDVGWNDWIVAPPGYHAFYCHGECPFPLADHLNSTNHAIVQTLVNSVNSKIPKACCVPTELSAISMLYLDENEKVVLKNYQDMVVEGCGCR

## [code s][code s]GPREIWDSLVGVVNPGW[code s][code r] (also: biotinylated, site not given here) [SEQ ID NO 1]
TGF-β3
  binding result: no binding (tested: growth factor 0.01 nM to 100 nM)
PDGF-BB
  binding result: no binding (tested: growth factor 0.01 nM to 100 nM)
TGF-β1
  binding result: no binding (tested: growth factor 0.01 nM to 100 nM)
GDF-7 [1]
  EC50: < 1 nM
GDF-5
  EC50: < 10 nM
BMP-2
  EC50: < 10 nM
BMP-6
  EC50: < 10 nM
BMP-5
  EC50: < 100 nM

B1: 780P (peptide)
chain 1: SWWGFWNGSAAPVWSR
chain 2: SSGGVGGWALFETLRGKEVSR
chain 3: GSSGK(Biotin)
modifications: not fully specified (some residues, C-terminus); also: chains 1-3 joined as one linear peptide (67-GSSG-2-GSSGK)
GDF-7 [2]
  EC50: > 100 nM

## [code s][code s]VAEWALRSWEGMRVGEA[code s][code r] (also: biotinylated, site not given here) [SEQ ID NO 3]
TGF-β3
  binding result: no binding (tested: growth factor 0.01 nM to 100 nM)
PDGF-BB
  binding result: no binding (tested: growth factor 0.01 nM to 100 nM)
TGF-β1
  binding result: no binding (tested: growth factor 0.01 nM to 100 nM)
GDF-7 [1]
  EC50: < 1 nM
GDF-5
  EC50: < 10 nM
BMP-2
  EC50: < 10 nM
BMP-6
  EC50: < 10 nM
BMP-5
  EC50: < 100 nM

B2: SEQ ID NO 2 (peptide)
peptide: SSGGVGGWALFETLRGKEVSR
modifications: not fully specified (residues 1, 2, 20, 21); printed as ssGGVGGWALFETLRGKEVsr; also: biotinylated, site not given here
TGF-β3
  binding result: no binding (tested: growth factor 0.01 nM to 100 nM)
PDGF-BB
  binding result: no binding (tested: growth factor 0.01 nM to 100 nM)
TGF-β1
  binding result: no binding (tested: growth factor 0.01 nM to 100 nM)
GDF-7 [1]
  EC50: < 1 nM
GDF-5
  EC50: < 10 nM
BMP-2
  EC50: < 10 nM
BMP-6
  EC50: < 10 nM
BMP-5
  EC50: < 100 nM
